B1: DH1041 (ACE2 binding site-targeting RBD neutralizing antibody) (antibody, V domains shown)
VH: EVQLVESGGGLVQPGGSLRLSCAASGVTFSSYWMSWVRQAPGKGLEWVANIRQDGSEKYSVDSVKGRFTISRDNAKNSLYLQMNSLRAEDTAVYYCARARRADNSGYYGFHFDCWGQGTLVTVSS
VL: QSVLTQPPSVSGAPGQRVTISCTGSSSNIGAGYDVHWYQQLPGTAPKLLIYGNNNRPSGVPDRFSDSKSGTSASLAITRLQAEDEADYYCQSYDSSLSGWVFGGGTKLTVL
B2: DH1047 antigen binding fragment (Fab) (Fab, V domains shown)
VH: QVQLVQSGAEVKKPGASVQVSCQASANTFTNHYIHWVRQAPGQGLEWMGIIYPTGGNTIYAQGFQGRVTMTRDTSLNTIYLELSSLRSEDTAVYYCARDVRVDDSWSGYDLLSGGTYFDYWGQGTLVTVSS
VL: not shown

Key:
[1] = target: SARS-CoV-2 RBD sortase A conjugated nanoparticle (RBD-scNP) (SARS-CoV-2, Wuhan strain (RBD moiety), UniProt P0DTC2); test: BLI
[2] = target: monomeric SARS-CoV-2 receptor binding domain (RBD) (SARS-CoV-2, UniProt P0DTC2); test: SPR

Binder | binding result [1] | Kd [2] [nM]
B1 | binds | 
B2 |  | < 0.02
